Results taken from publication PMC8360832, “Butyryl/Caproyl-CoA:Acetate CoA-transferase: cloning, expression and characterization of the key enzyme involved in medium-chain fatty acid biosynthesis” (Bioscience Reports, 2021).

What was measured:
[1] = tested on: T1, CCCC(=O)SCCNC(=O)CCNC(=O)[C@H](O)C(C)(C)COP(=O)(O)OP(=O)(O)OC[C@H]1O[C@@H](n2cnc3c(N)ncnc32)[C@H](O)[C@@H]1OP(=O)(O)O; assay: purified protein; format: biochemical, Caproicibacterium lactatifermentans; details: 200 mM sodium acetate, 100 mM potassium phosphate pH 7, 25 °C
T1 construct: full-length, N-terminal His tag, pET28a, E. coli BL21 (DE3), Ni-NTA; gene 1344 bp, 49 kDa; predicted active site GGQLDFVLGAYL 342-353; homotetramer in model only

[2] = tested on: T2, CCCCCC(=O)SCCNC(=O)CCNC(=O)[C@H](O)C(C)(C)COP(=O)(O)OP(=O)(O)OC[C@H]1O[C@@H](n2cnc3c(N)ncnc32)[C@H](O)[C@@H]1OP(=O)(O)O; assay: purified protein; format: biochemical, Caproicibacterium lactatifermentans; details: 200 mM sodium acetate, 100 mM potassium phosphate pH 7, 25 °C
T2 construct: full-length, N-terminal His tag, pET28a, E. coli BL21 (DE3), Ni-NTA; gene 1344 bp, 49 kDa; predicted active site GGQLDFVLGAYL 342-353; homotetramer in model only

Sequence of CPB6-CoAT (CCoAT) (Caproicibacterium lactatifermentans; A351P) (chain, as listed by the source A351P): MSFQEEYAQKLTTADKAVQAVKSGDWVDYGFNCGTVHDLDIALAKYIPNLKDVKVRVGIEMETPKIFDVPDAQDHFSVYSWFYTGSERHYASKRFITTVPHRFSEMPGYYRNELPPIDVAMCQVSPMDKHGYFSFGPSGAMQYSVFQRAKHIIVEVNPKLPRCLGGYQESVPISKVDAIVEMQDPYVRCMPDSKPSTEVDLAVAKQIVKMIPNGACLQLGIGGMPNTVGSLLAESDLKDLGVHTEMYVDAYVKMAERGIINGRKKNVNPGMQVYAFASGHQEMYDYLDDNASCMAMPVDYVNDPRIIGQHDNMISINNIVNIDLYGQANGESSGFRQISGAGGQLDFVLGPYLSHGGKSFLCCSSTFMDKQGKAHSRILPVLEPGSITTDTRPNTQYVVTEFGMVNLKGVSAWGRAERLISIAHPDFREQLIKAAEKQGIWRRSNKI
Sequence of CPB6-CoAT (CCoAT) (Caproicibacterium lactatifermentans) (chain, as listed by the source): as the sequence (chain, as listed by the source A351P) above, with P351A counted along it
Sequence of CPB6-CoAT (CCoAT) (Caproicibacterium lactatifermentans; D346H) (chain, as listed by the source D346H): as the sequence (chain, as listed by the source A351P) above, with D346H, P351A counted along it

| Substance | Km [1] [µM] | kcat [1] [s⁻¹] | kcat/Km [1] [M⁻¹ s⁻¹] | Km [2] [µM] | kcat [2] [s⁻¹] | kcat/Km [2] [M⁻¹ s⁻¹] |
| --- | --- | --- | --- | --- | --- | --- |
| CPB6-CoAT (CCoAT) (Caproicibacterium lactatifermentans) | 537 ± 10 | 0.0968 ± 0.025 | 180 ± 3.33 | 359 ± 5.3 | 0.245 ± 0.015 | 685 ± 3.33 |
| CPB6-CoAT (CCoAT) (Caproicibacterium lactatifermentans; A351P) | 623 ± 4.4 | 0.0498 ± 0.015 | 80 ± 3.33 | 532 ± 2.5 | 0.113 ± 0.02 | 213 ± 8.33 |
| CPB6-CoAT (CCoAT) (Caproicibacterium lactatifermentans; D346H) | 747 ± 2.8 | 0.0217 ± 0.00333 | 28.8 ± 1.67 | 748 ± 7.9 | 0.0707 ± 0.00333 | 94.3 ± 1.67 |
